Test results reported in publication doi:10.1101/2024.06.17.599268 (bioRxiv, 2024).

Assays:
[1] = target: Mical1 MO-CH-LIM (residues 1-781) (human) (UniProt Q8TDZ2); test: ITC
[2] = target: T1, Mical1 MO-CH-LIM (residues 1-781) (human, UniProt Q8TDZ2 1-781); test: ITC
T1 sequence: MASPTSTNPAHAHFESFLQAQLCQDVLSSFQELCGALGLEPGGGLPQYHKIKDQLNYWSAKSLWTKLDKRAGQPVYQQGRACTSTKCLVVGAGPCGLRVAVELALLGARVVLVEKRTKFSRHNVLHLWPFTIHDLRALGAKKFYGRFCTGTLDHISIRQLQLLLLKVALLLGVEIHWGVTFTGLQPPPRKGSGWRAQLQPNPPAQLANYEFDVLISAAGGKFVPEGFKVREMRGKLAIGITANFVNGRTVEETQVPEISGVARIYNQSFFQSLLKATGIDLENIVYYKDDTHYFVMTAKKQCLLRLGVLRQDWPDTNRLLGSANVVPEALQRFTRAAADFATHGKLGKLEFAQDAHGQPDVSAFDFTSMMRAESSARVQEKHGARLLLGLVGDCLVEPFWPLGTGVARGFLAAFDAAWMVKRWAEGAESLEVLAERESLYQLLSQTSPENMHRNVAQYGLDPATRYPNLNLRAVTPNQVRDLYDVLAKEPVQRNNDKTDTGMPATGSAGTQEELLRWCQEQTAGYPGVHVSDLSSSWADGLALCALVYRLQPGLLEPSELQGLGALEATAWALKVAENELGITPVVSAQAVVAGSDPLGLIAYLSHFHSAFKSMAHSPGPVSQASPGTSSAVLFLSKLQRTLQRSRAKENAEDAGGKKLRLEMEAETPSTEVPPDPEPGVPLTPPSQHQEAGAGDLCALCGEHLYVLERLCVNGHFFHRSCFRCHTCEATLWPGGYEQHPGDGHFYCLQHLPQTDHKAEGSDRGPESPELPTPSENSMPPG

Rab8a_(1-176) [3] = target: T2, Rab8a_(1-176) (human, UniProt P61006 1-176); test: SEC
T2 sequence: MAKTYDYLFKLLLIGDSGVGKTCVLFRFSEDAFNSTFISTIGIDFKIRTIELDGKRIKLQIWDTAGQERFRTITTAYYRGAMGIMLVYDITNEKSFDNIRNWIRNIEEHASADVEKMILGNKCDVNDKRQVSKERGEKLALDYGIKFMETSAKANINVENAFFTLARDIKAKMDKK

Rab8a_(1-176) [4] = target: T2, Rab8a_(1-176); test: ITC
[5] = target: T3, Mical1 bMERB domain (residues 918-1067) (human, UniProt Q8TDZ2 918-1067); test: ITC
T3 sequence: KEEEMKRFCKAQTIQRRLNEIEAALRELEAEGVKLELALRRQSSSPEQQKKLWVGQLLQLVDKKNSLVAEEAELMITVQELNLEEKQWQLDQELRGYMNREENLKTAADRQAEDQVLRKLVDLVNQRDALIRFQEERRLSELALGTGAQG

Molecule: Mical1 bMERB domain (residues 918-1067) (from UniProt Q8TDZ2 918-1067) (domain or fragment)
- Kd [1]: 2700 nM
- stoichiometry N [1]: 1

B1: bMERB K918A_E921A (domain or fragment)
chain: AEEAMKRFCKAQTIQRRLNEIEAALRELEAEGVKLELALRRQSSSPEQQKKLWVGQLLQLVDKKNSLVAEEAELMITVQELNLEEKQWQLDQELRGYMNREENLKTAADRQAEDQVLRKLVDLVNQRDALIRFQEERRLSELALGTGAQG
- fold reduction in affinity against wild-type bMERB [2]: 2 fold
- binding result (Rab8a_(1-176) [3]): binds

B2: bMERB W970A (domain or fragment)
chain: KEEEMKRFCKAQTIQRRLNEIEAALRELEAEGVKLELALRRQSSSPEQQKKLAVGQLLQLVDKKNSLVAEEAELMITVQELNLEEKQWQLDQELRGYMNREENLKTAADRQAEDQVLRKLVDLVNQRDALIRFQEERRLSELALGTGAQG
- fold reduction in affinity against wild-type bMERB [2]: 4 fold
- binding result (Rab8a_(1-176) [3]): binds

B3: bMERB_(V985A) (domain or fragment)
chain: KEEEMKRFCKAQTIQRRLNEIEAALRELEAEGVKLELALRRQSSSPEQQKKLWVGQLLQLVDKKNSLAAEEAELMITVQELNLEEKQWQLDQELRGYMNREENLKTAADRQAEDQVLRKLVDLVNQRDALIRFQEERRLSELALGTGAQG
- fold reduction in affinity against wild-type bMERB [2]: 10 fold
- binding result (Rab8a_(1-176) [4]): binds

B4: bMERB_(V1041A_I1048A) (domain or fragment)
chain: KEEEMKRFCKAQTIQRRLNEIEAALRELEAEGVKLELALRRQSSSPEQQKKLWVGQLLQLVDKKNSLVAEEAELMITVQELNLEEKQWQLDQELRGYMNREENLKTAADRQAEDQVLRKLVDLANQRDALARFQEERRLSELALGTGAQG
- binding result [2]: binds

B5: Rab10_(1-175) (natural protein)
chain: MAKKTYDLLFKLLLIGDSGVGKTCVLFRFSDDAFNTTFISTIGIDFKIKTVELQGKKIKLQIWDTAGQERFHTITTSYYRGAMGIMLVYDITNGKSFENISKWLRNIDEHANEDVERMLLGNKCDMDDKRVVPKGKGEQIAREHGIRFFETSAKANINIEKAFLTLAEDILRKTP
- KD of the high-affinity site (Ct-RBS2) [5]: 11 nM
- KD of the low-affinity site (Nt-RBS1) [5]: 3730 nM
- stoichiometry N [5]: 2

B6: Rab15_(1-176) (natural protein)
chain: MAKQYDVLFRLLLIGDSGVGKTCLLCRFTDNEFHSSHISTIGVDFKMKTIEVDGIKVRIQIWDTAGQERYQTITKQYYRRAQGIFLVYDISSERSYQHIMKWVSDVDEYAPEGVQKILIGNKADEEQKRQVGREQGQQLAKEYGMDFYETSACTNLNIKESFTRLTELVLQAHRKE
- KD of the high-affinity site (Ct-RBS2) [5]: 2.5 nM
- KD of the low-affinity site (Nt-RBS1) [5]: 2910 nM
- stoichiometry N [5]: 2

B7: bMERB F925A (domain or fragment)
chain: KEEEMKRACKAQTIQRRLNEIEAALRELEAEGVKLELALRRQSSSPEQQKKLWVGQLLQLVDKKNSLVAEEAELMITVQELNLEEKQWQLDQELRGYMNREENLKTAADRQAEDQVLRKLVDLVNQRDALIRFQEERRLSELALGTGAQG
- binding result (Rab8a_(1-176) [3]): binds

B8: bMERB L974A_L975A (domain or fragment)
chain: KEEEMKRFCKAQTIQRRLNEIEAALRELEAEGVKLELALRRQSSSPEQQKKLWVGQAAQLVDKKNSLVAEEAELMITVQELNLEEKQWQLDQELRGYMNREENLKTAADRQAEDQVLRKLVDLVNQRDALIRFQEERRLSELALGTGAQG
- fold reduction in affinity against wild-type bMERB [2]: 6 fold
- binding result (Rab8a_(1-176) [3]): binds

B9: bMERB E939A (domain or fragment)
chain: KEEEMKRFCKAQTIQRRLNEIAAALRELEAEGVKLELALRRQSSSPEQQKKLWVGQLLQLVDKKNSLVAEEAELMITVQELNLEEKQWQLDQELRGYMNREENLKTAADRQAEDQVLRKLVDLVNQRDALIRFQEERRLSELALGTGAQG
- fold reduction in affinity against wild-type bMERB [2]: > 5 fold
- binding result (Rab8a_(1-176) [3]): binds

B10: bMERB L956S (domain or fragment)
chain: KEEEMKRFCKAQTIQRRLNEIEAALRELEAEGVKLELASRRQSSSPEQQKKLWVGQLLQLVDKKNSLVAEEAELMITVQELNLEEKQWQLDQELRGYMNREENLKTAADRQAEDQVLRKLVDLVNQRDALIRFQEERRLSELALGTGAQG
- fold reduction in affinity against wild-type bMERB [2]: > 9 fold
- binding result (Rab8a_(1-176) [3]): binds

B11: bMERB L977A_V978A (domain or fragment)
chain: KEEEMKRFCKAQTIQRRLNEIEAALRELEAEGVKLELALRRQSSSPEQQKKLWVGQLLQAADKKNSLVAEEAELMITVQELNLEEKQWQLDQELRGYMNREENLKTAADRQAEDQVLRKLVDLVNQRDALIRFQEERRLSELALGTGAQG
- fold reduction in affinity against wild-type bMERB [2]: 6 fold
- binding result (Rab8a_(1-176) [3]): binds

B12: bMERB_(M992A_I993A) (domain or fragment)
chain: KEEEMKRFCKAQTIQRRLNEIEAALRELEAEGVKLELALRRQSSSPEQQKKLWVGQLLQLVDKKNSLVAEEAELAATVQELNLEEKQWQLDQELRGYMNREENLKTAADRQAEDQVLRKLVDLVNQRDALIRFQEERRLSELALGTGAQG
- fold reduction in affinity against wild-type bMERB [2]: > 25 fold
- binding result (Rab8a_(1-176) [3]): binds

B13: bMERB_(L1047A_F1050A) (domain or fragment)
chain: KEEEMKRFCKAQTIQRRLNEIEAALRELEAEGVKLELALRRQSSSPEQQKKLWVGQLLQLVDKKNSLVAEEAELMITVQELNLEEKQWQLDQELRGYMNREENLKTAADRQAEDQVLRKLVDLVNQRDAAIRAQEERRLSELALGTGAQG
- binding result (Rab8a_(1-176) [3]): binds

B14: bMERB L1011S (domain or fragment)
chain: KEEEMKRFCKAQTIQRRLNEIEAALRELEAEGVKLELALRRQSSSPEQQKKLWVGQLLQLVDKKNSLVAEEAELMITVQELNLEEKQWQLDQESRGYMNREENLKTAADRQAEDQVLRKLVDLVNQRDALIRFQEERRLSELALGTGAQG
- binding result (Rab8a_(1-176) [3]): binds

B15: bMERB V1038A (domain or fragment)
chain: KEEEMKRFCKAQTIQRRLNEIEAALRELEAEGVKLELALRRQSSSPEQQKKLWVGQLLQLVDKKNSLVAEEAELMITVQELNLEEKQWQLDQELRGYMNREENLKTAADRQAEDQVLRKLADLVNQRDALIRFQEERRLSELALGTGAQG
- binding result (Rab8a_(1-176) [3]): binds

B16: bMERB V1041A (domain or fragment)
chain: KEEEMKRFCKAQTIQRRLNEIEAALRELEAEGVKLELALRRQSSSPEQQKKLWVGQLLQLVDKKNSLVAEEAELMITVQELNLEEKQWQLDQELRGYMNREENLKTAADRQAEDQVLRKLVDLANQRDALIRFQEERRLSELALGTGAQG
- binding result (Rab8a_(1-176) [3]): binds

B17: bMERB R1044A (domain or fragment)
chain: KEEEMKRFCKAQTIQRRLNEIEAALRELEAEGVKLELALRRQSSSPEQQKKLWVGQLLQLVDKKNSLVAEEAELMITVQELNLEEKQWQLDQELRGYMNREENLKTAADRQAEDQVLRKLVDLVNQADALIRFQEERRLSELALGTGAQG
- binding result (Rab8a_(1-176) [3]): binds

B18: bMERB I1048A (domain or fragment)
chain: KEEEMKRFCKAQTIQRRLNEIEAALRELEAEGVKLELALRRQSSSPEQQKKLWVGQLLQLVDKKNSLVAEEAELMITVQELNLEEKQWQLDQELRGYMNREENLKTAADRQAEDQVLRKLVDLVNQRDALARFQEERRLSELALGTGAQG
- binding result (Rab8a_(1-176) [3]): binds
